The supplement of paper PMC12764529
± gives the half width of the 95% confidence interval.

test: folding stability dG unfold (combined trypsin and chymotrypsin); higher = more stable
How it was run: (§1)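 Digests were run with trypsin and chymotrypsin at 11 concentrations in threefold dilutions, plus a no-protease condition, on designed mini-proteins in a PA-tagged cDNA display construct. The mini-proteins were under 80 residues, had no cysteine, and were kept only when AlphaFold2 dimer inter-PAE was above 15. After sequencing, Bayesian fitting of the counts gave K50, from which unfolding free energy was derived against a sequence-predicted unfolded-state K50 and a shared folded-state K50, per protease or combined.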

Row | Sequence | folding stability dG unfold [kcal/mol]
1 | SAGGSAGGSAGGSMTVTLSREELLRLLGVPPGVPIPESVLAKIKSIETLPDGSVTVTIGSAGGSAGGSAGGS [r4_369_JUSTAS] | 2.74 ± 0.11
2 | SAGGSFLVPTSSMEEAEEIKNAVLAGEPVTVTPPDGVPVTVKAKSVEVDPETGKVRIIDPSGEKLALSAGGS [r16_254_JUSTAS] | 0.379 ± 0.1
3 | SAGGSAGGSPVFESPEQAKAFLDNVPADSTVLIAVKNPETGEWQLFVVKVPPKRPVGYPGDKDSAGGSAGGS [r12_393_TrMRF] | 1.56 ± 0.085
4 | SAGGSAGGSKIPPNQFIVRIEIKRRKPNGEKRKHEIIIPVGMPLDTLRDHAPPGYEITDIEVISAGGSAGGS [r12_597_TrROS] | 1.6 ± 0.05
5 | SAGGSAGGSIRIIFPVDNPEQAENIAEEIAERFGIQIEDIEVEQVPNGMYIVTFEVKIPPEMISAGGSAGGS [r12_577_TrROS] | 2.38 ± 0.096
6 | SAGGEWHEISIKFPNPEEIEEALREAFPPGMDVDPDVEPNPNGWEVEIEVPRNNPDRVQNAIKEALDSAGGS [r16_43_TrROS] | 0.492 ± 0.11
7 | SAGGASFSLSEGYDPSLGKTFTRETEAPEVPVPPVTVVPLSEIGRLKAEGVPPSWTVDPETGTVTVTSAGGS [r16_194_JUSTAS] | 0.258 ± 0.059
8 | SAEVEIEVVEKDGKLYLVIRVRFPPGLKPGDKVTLTLTLPNGAKVTITRDKDGTRYITIVVELKDLEKLSAG [r14_754_TrROS_Hall] | 4.69 ± 0.22
9 | SAGGSAAEPVVLVFKTPESEALITVPPAFVQRVTVDPGGTVRRITVDLPDGTRTFLITDDSIFVDDSAGGSA [r15_598_TrMRF] | 0.709 ± 0.068
10 | SAGGGMSTLVRLPPGGVEEREVPPGTEADLNAEFSPESKLVVRTFDPATGRWTETVYEPGGVPTVLSSSAGG [r13_74_JUSTAS] | 3.41 ± 0.32
11 | SKKTIYIVNEDGSIIRFDEETGEITIFNKETGKEVKIKVEKKGNELIITIEVNGKKYKIKIPKGDIIPIKSA [r9_239_TrROS_Hall] | 3.68 ± 0.24
12 | SIEVEKTPDGKFEIENDNGWKVEIEVFPGMIEIKIKPVKVYVPDGKWFETPEEAEKMQEKNGVPITEDDLSA [r9_660_TrROS] | 0.743 ± 0.19
13 | SAGGMYLYKINIKNENEEFFLPILAPEEDEEKVEELAKEISIKLGVKPENIKIEKIEKILGPNGIPVSAGGS [r16_650_TrMRF] | 1.99 ± 0.1
14 | SAGGSAGGGGTLTIEVDAPAGAKKINIELPGGTVSNLSYDPSTGKATIPFDTPEQAKAVEALVGSAGGSAGG [r6_745_TrMRF] | -0.086 ± 0.058
15 | SAGGSAGGSAMTITVEVPPSVPAEEAAERVAERLRAEFPVPDIRVTVETTPDGTVTVTITEASAGGSAGGSA [r18_1_JUSTAS] | 0.275 ± 0.1
16 | SAMLPEGERKPFLVKVKIETPEGTPEFEAPVITEPPQKIHVSIDFDIPEGEHKIKIEFFGPKLEFEFDISAG [r14_280_TrMRF] | 2.29 ± 0.44
17 | SAGGSAGGSAGGSGSVRIKVYNPKTGEVLELEVPEELVPAAVEAAKALGFEKVEVSPGKSAGGSAGGSAGGS [r4_102_TrMRF] | 2.49 ± 0.13
18 | SAGMITISEEEARELGVPIGASEEEIKEALAARLREEGYKVEFPSVVKEKVDPKTGKVEYKIDINLKPLSAG [r5_23_JUSTAS] | 0.807 ± 0.18
19 | SLIPIRPLATSPSGDLLIEVPAEEDLVEEIKKYLKEKFPGYTPVEVKPVESPPLYLVLFSHPSGKKVWLGSA [r9_1164_JUSTAS] | 1.24 ± 0.07
20 | SAGGSAGGSMLVEVEYEGGERRTFPLENRSVEEAVEALPEGVTRVRVTVYLGEKPVEFEVERPSAGGSAGGS [r12_767_TrMRF] | 0.799 ± 0.052
21 | SAGGSAGGPNIEIMSMFKHPNGTIVIFIRTPEGRYIVIKIPPPGNIKIVGVYPLPPGDPLLERLSAGGSAGG [r6_715_TrROS] | 3.06 ± 0.2

Row | Sequence | folding stability dG unfold [kcal/mol]
22 | SAGGSAGGSPVIAVRVKRIEVTYDAATGRLTVRIEVEVDGKTYTITVPPGAEIKPGDTLLIEPSAGGSAGGS [r20_49_TrROS_Hall] | 4.375 ± 0.041
23 | SAGGSAGGSAGPVTITIKVPKEDEEEIEALARELAAALPPPEGAKVTVERNEDGTITITLSAGGSAGGSAGG [r17_324_TrROS_Hall] | 1.62 ± 0.12
24 | SAGGSAGGSAGGMTAIIVESEEEAKKIAEEKGIKDVKFIPKGKPELLKPDVDKVIKINKKSAGGSAGGSAGG [r7_381_JUSTAS] | 0.102 ± 0.33
25 | SAGGFKIEIEKNPEPDGIVIVIEYDMPPKGIKDFIEELFGPNPKDVTTEEHPNGRTEVTFRIPPGAPSAGGS [r16_605_TrROS] | 0.268 ± 0.3
26 | SAGGSAGGSAGGKPLYLRITVKNKDGSEREIVVPLDTTIDDILAALPPNVTEVKIEVFPVSAGGSAGGSAGG [r7_288_TrROS_Hall] | 3.52 ± 0.13
27 | SAGGSAGGSMIIRIKTENGEEIEIEAESEEEAKKAAEELKKELEEKGYKIEEVEIYEIPEEELSAGGSAGGS [r12_301_TrROS_Hall] | 2.05 ± 0.26
28 | SMEILEMDIEEILSLLPEDIHPDVPYTLTVPGLEIRILDVAPVREEEGGPRPTTVIEVFLPDGPVVFPLESA [r9_279_TrMRF] | 1.11 ± 0.12
29 | SAGGSAGGSMVVVRRLPDGRYLLEVRLEGESLRFEVDGEEEVERFAKALEELTGRPVEVLTVESAGGSAGGS [r12_783_TrMRF] | 4.15 ± 0.061
30 | SAGMKIKIVKIEKEEDGTIRVELEITDPNGNKYRVEAEIDLKDPNKIKIKVINEDTGEEFEIELTIKKPSAG [r5_345_TrROS_Hall] | 5.24 ± 0.35
31 | SAGGSAGGSAGMRTVEVKVVFKEGDKEFEKTITITLSPDDPSLEERAKEIAEKGIVVEIIRSAGGSAGGSAG [r3_30_JUSTAS] | 1.75 ± 0.15
32 | SAVVSVDPATGVVTAKVKVDDTELTVTITRDPATGAWPVTFTPPGSGTPVVLDVPFTSVEEAIELAKRLSAG [r14_803_JUSTAS] | 1.59 ± 0.05
33 | SPVTVTITLPNGETITLTFPAGMTAEELKAAVLAELKRLLPPGAKIEVVDIEVTEVVAPGETVTVTVRLTSA [r9_178_TrROS_Hall] | 4.16 ± 0.11
34 | SAGKISSIDISPFKLPDGSYPYLLRVSFPDLGTEVDFIFPAKPSDAINFAKELRKSLPNIPLTFSNISSAGG [r19_317_TrMRF] | 1.87 ± 0.11
35 | SAGGSAGGSAGGGSMLTVKVPETVPEYTSTDPATGKTYNVPPSVPVEVEGSPDSFSILLSAGGSAGGSAGGS [r10_46_JUSTAS] | 1.01 ± 0.094
36 | SAGGSAGGSAGGLVAKVYRDGKEAVFYFDSPEEMVESIRPLFPDGKEVKVEVTTPEELFSAGGSAGGSAGGS [r10_1167_TrMRF] | 0.0392 ± 0.24
37 | SAGGSAGGSAGIKIPPGQKLSIEENPDGNMEIKFPDPGQKFTIPPNAPIEVDPNNWIYIKSAGGSAGGSAGG [r17_49_TrROS] | 0.181 ± 0.33
38 | SASSMSLSFSVSLETDPEKGLLSTVTTTSTVTPYPDSVVTTTTVTTTVTPVPPGPPVVSPSATPVVALSSAG [r14_435_JUSTAS] | 1.13 ± 0.051
39 | SAGGSAGGSAGGMLYVKVKTEDGEELVLEVEGMTEDEIREELAKAGFKIEEIEVYEVEPSAGGSAGGSAGGS [r10_572_TrROS_Hall] | 2.71 ± 0.06
40 | SAGGMKLPENAKVVKKIEIKDEKTGKTFKATIVKNKDGSLYIFIEKDGKIYKFKIENGKIKMEEIPPSAGGS [r16_711_TrROS_Hall] | 4.07 ± 0.55
41 | SAGITLHPDARIILKNPSTGEKIELRSETIRRLIAEILGTDRPEEITAEQINAFALSLGFEEAEFEEPSAGG [r19_67_TrMRF] | 3.02 ± 0.045
42 | SAGMKLELLLPAEEAVRLFGPDFDARDLARALASEGYVVESVEAEPFPNPEEGGLYLRVTFDVRPPDASAGG [r19_376_TrMRF] | 1.38 ± 0.045

test: folding stability dG unfold from chymotrypsin proteolysis; higher = more stable
How it was run: as §1

Row | Sequence | folding stability dG unfold [kcal/mol]
43 | SAGGSAGGSAGGSMTVTLSREELLRLLGVPPGVPIPESVLAKIKSIETLPDGSVTVTIGSAGGSAGGSAGGS [r4_369_JUSTAS] | 3.118 ± 0.027
44 | SAGGSFLVPTSSMEEAEEIKNAVLAGEPVTVTPPDGVPVTVKAKSVEVDPETGKVRIIDPSGEKLALSAGGS [r16_254_JUSTAS] | 0.414 ± 0.095
45 | SAGGSAGGSPVFESPEQAKAFLDNVPADSTVLIAVKNPETGEWQLFVVKVPPKRPVGYPGDKDSAGGSAGGS [r12_393_TrMRF] | 1.79 ± 0.072
46 | SAGGSAGGSKIPPNQFIVRIEIKRRKPNGEKRKHEIIIPVGMPLDTLRDHAPPGYEITDIEVISAGGSAGGS [r12_597_TrROS] | 1.8 ± 0.021
47 | SAGGSAGGSIRIIFPVDNPEQAENIAEEIAERFGIQIEDIEVEQVPNGMYIVTFEVKIPPEMISAGGSAGGS [r12_577_TrROS] | 2.28 ± 0.036
48 | SAGGEWHEISIKFPNPEEIEEALREAFPPGMDVDPDVEPNPNGWEVEIEVPRNNPDRVQNAIKEALDSAGGS [r16_43_TrROS] | 0.469 ± 0.031
49 | SAGGASFSLSEGYDPSLGKTFTRETEAPEVPVPPVTVVPLSEIGRLKAEGVPPSWTVDPETGTVTVTSAGGS [r16_194_JUSTAS] | 0.564 ± 0.072
50 | SAEVEIEVVEKDGKLYLVIRVRFPPGLKPGDKVTLTLTLPNGAKVTITRDKDGTRYITIVVELKDLEKLSAG [r14_754_TrROS_Hall] | 5.23 ± 0.13
51 | SAGGSAAEPVVLVFKTPESEALITVPPAFVQRVTVDPGGTVRRITVDLPDGTRTFLITDDSIFVDDSAGGSA [r15_598_TrMRF] | 0.581 ± 0.12
52 | SAGGGMSTLVRLPPGGVEEREVPPGTEADLNAEFSPESKLVVRTFDPATGRWTETVYEPGGVPTVLSSSAGG [r13_74_JUSTAS] | 3.65 ± 0.21
53 | SKKTIYIVNEDGSIIRFDEETGEITIFNKETGKEVKIKVEKKGNELIITIEVNGKKYKIKIPKGDIIPIKSA [r9_239_TrROS_Hall] | 4.16 ± 0.07
54 | SIEVEKTPDGKFEIENDNGWKVEIEVFPGMIEIKIKPVKVYVPDGKWFETPEEAEKMQEKNGVPITEDDLSA [r9_660_TrROS] | 1.08 ± 0.071
55 | SAGGMYLYKINIKNENEEFFLPILAPEEDEEKVEELAKEISIKLGVKPENIKIEKIEKILGPNGIPVSAGGS [r16_650_TrMRF] | 2.08 ± 0.037
56 | SAGGSAGGGGTLTIEVDAPAGAKKINIELPGGTVSNLSYDPSTGKATIPFDTPEQAKAVEALVGSAGGSAGG [r6_745_TrMRF] | 0.098 ± 0.088
57 | SAGGSAGGSAMTITVEVPPSVPAEEAAERVAERLRAEFPVPDIRVTVETTPDGTVTVTITEASAGGSAGGSA [r18_1_JUSTAS] | 0.436 ± 0.09
58 | SAMLPEGERKPFLVKVKIETPEGTPEFEAPVITEPPQKIHVSIDFDIPEGEHKIKIEFFGPKLEFEFDISAG [r14_280_TrMRF] | 2.42 ± 0.12
59 | SAGGSAGGSAGGSGSVRIKVYNPKTGEVLELEVPEELVPAAVEAAKALGFEKVEVSPGKSAGGSAGGSAGGS [r4_102_TrMRF] | 2.91 ± 0.077
60 | SAGMITISEEEARELGVPIGASEEEIKEALAARLREEGYKVEFPSVVKEKVDPKTGKVEYKIDINLKPLSAG [r5_23_JUSTAS] | -0.104 ± 0.48
61 | SLIPIRPLATSPSGDLLIEVPAEEDLVEEIKKYLKEKFPGYTPVEVKPVESPPLYLVLFSHPSGKKVWLGSA [r9_1164_JUSTAS] | 1.35 ± 0.082
62 | SAGGSAGGSMLVEVEYEGGERRTFPLENRSVEEAVEALPEGVTRVRVTVYLGEKPVEFEVERPSAGGSAGGS [r12_767_TrMRF] | 1.07 ± 0.067
63 | SAGGSAGGPNIEIMSMFKHPNGTIVIFIRTPEGRYIVIKIPPPGNIKIVGVYPLPPGDPLLERLSAGGSAGG [r6_715_TrROS] | 3.14 ± 0.12
